Reference: CN109265548A (UNIV SOUTHEAST, dated 2019)

How the values were obtained:
PD-L2(人) = target: T1, PD-L2(人) (human, UniProt Q9BQ51 20-220, limits assumed); assay: ELISA, antigen coated 0.5 μg per well, detection with rabbit anti-HA and HRP goat anti-rabbit
T1 construct: also called 人PD-L2
T1 sequence (looked up): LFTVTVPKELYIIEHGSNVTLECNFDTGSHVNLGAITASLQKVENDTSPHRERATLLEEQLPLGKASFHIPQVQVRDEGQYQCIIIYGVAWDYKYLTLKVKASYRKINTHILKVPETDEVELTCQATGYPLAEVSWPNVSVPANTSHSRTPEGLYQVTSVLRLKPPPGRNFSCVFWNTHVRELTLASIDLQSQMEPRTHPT

PD-L1(鼠) = target: T2, PD-L1(鼠) (鼠 (murine), UniProt Q9EP73 19-239, limits assumed); assay: as above
T2 construct: also called 鼠源的PD-L1
T2 sequence (Q9EP73 19-239 limits assumed): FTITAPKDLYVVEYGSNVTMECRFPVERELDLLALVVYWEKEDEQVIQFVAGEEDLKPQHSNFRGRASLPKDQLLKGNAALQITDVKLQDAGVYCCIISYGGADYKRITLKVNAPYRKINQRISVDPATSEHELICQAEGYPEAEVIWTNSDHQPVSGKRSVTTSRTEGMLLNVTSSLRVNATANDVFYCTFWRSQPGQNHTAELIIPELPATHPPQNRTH

binding result (PD-L2(人)): no binding (tested: 10μg/mL)
binding result (PD-L1(鼠)): no binding (tested: 10μg/mL)
B1: 抗PD-L1Nb15 (VHH)
VHH: QVQLVESGGGSVQAGGALRLSCAASGYTSTSNCMGWFRQAPGKEREGVAAIYTGGGSTYYADSVKGRFTISQDNAKNTVYLQMNSLKPEDTAMYYCAAGDLDPAEYSDYDPTVFNYWGQGTLVTVSS
notes: Expressed from pET32a in E. coli BL21(DE3), purified on Ni-IDA and detected in ELISA with an anti-HA antibody; the vector-derived tags are not described; also called antiPD-L1Nb15; 抗PD-L1-VHH15
